This is an account of results in patent US20250027068.

First the molecules themselves.
B1: PRT-95 (protein)
chain: MANQEIRYSEVTPYHITSVWTKGVTPPAKFTQGEDVFHAPYVANQGWYDITKTFNGKDDLLCGAATAGNMLHWWFDQNKEKIEAYLKKHPDKQKIMFGDQELLDVRKVINTKGDQTNSELFNYFRDKAFPNLSARRIGVMPDLVLDMFINGYYLNVGKTQTTDVNRTYQEKDKRGGIFDAVFTRGDQSKLLTSRHDFKEKNLKEISDLIKQELTEGKALGLSHTYANVRINHVINLWGADFDSNGNLKAIYVTDSDSNASIGMKKYFVGVNSAGKVAISAKEIEEDNIGAQVLGLFTLSTGQDSWNQTN
B2: PRT-102 (protein)
chain: B1 chain with I16V, N131G, G157Y, K173R, E284K
B3: PRT-104 (protein)
chain: B1 chain with I16V, N131G, G157T, K173R, Q211K, E284K
B4: PRT-97 (protein)
chain: B1 chain with I16V, D91E, N131G, G157Y, K173R, Q211K, E284K
B5: PRT-100 (protein)
chain: B1 chain with I16V, G157Y, K173R, Q211K, E284K
B6: PRT-103 (protein)
chain: B1 chain with I16V, D114S, N131G, G157Y, K173R, Q211K, E284K
B7: PRT-96 (protein)
chain: B1 chain with H15T, I16V, K29D, V108A, N131G, G157Y, K173R, Q211K, N244E, E284K
B8: PRT-101 (protein)
chain: B1 chain with I16V, N131G, G157Y, Q211K, E284K
B9: PRT-99 (protein)
chain: B1 chain with I16V, N131G, G157Y, K173R, Q211K, E284K, S304I
B10: PRT-98 (protein)
chain: B1 chain with I16V, N131G, I137L, G157Y, K173R, Q211K, E284K
B11: PRT-105 (protein)
chain: B1 chain with I16V, K81E, N131G, G157Y, K173R, Q211K, E284K
B12: PRT-106 (protein)
chain: MRNATEAYAKEVPHQITSVWTKGVTPLTPEQFRYNNEDVIHAPYLAHQGWYDITKTFNGKDNLLCGAATAGNMLHWWFDQNKTEIEAYLSKHPEKQKIIFNNQELFDLKAAIDTKDSQTNSQLFNYFRDKAFPNLSARQLGVMPDLVLDMFINGYYLNVFKTQSTDVNRPYQDKDKRGGIFDAVFTRGDQTTLLTARHDLKNKGLNDISTLIKQELTEGRALALSHTYANVSISHVINLWGADFNAEGNLEAIYVTDSDANASIGMKKYFVGINASGKVAISAKKIEGENIGAQVLGLFTLSSGKDIWQKLS
B13: PRT-109 (protein)
chain: B12 chain with Q15T, L45V, N58D, D207E, R220K, A260D, I273V, S276A
B14: PRT-108 (protein)
chain: B12 chain with L27P, L45T, N58D, S276A, K278H
B15: PRT-107 (protein)
chain: B12 chain with H47N, T56A, N58D, D173T, L211I, R220K, I273V, S276A, K278H
B16: PRT-110 (protein)
chain: B12 chain with L27P, I40F, L45T, N58D, Q122A, G204T, L211I, A260S, I273V
B17: PRT-167 (protein)
chain: MANQEIRYSEVTPYHVTSVWTKGVTPPTDFTQGEDVFHAPYKANQGWYDITKTFNGKDDLLCGAATAGNMLHWWFDQNKDQIKRYLEEHPEKQKINFNGEQMFDVKEAIDTKNSQLDSKLFEYFKEKAFPYLSTKHLGVFPDHVIDMFINGYRLSLTNHGPTPVKEGSKDPRGGIFDAVFTRGDQSKLLTSRHDFKEKNLKEISDLIKKELTEGKALGLSHTYANVRINHVINLWGADFDSNGNLKAIYVTDSDSNASIGMKKYFVGVNSAGKVAISAKEIKEDNIGAQVLGLFTLSTGQDSWNQTN
B18: PRT-169 (protein)
chain: B17 chain with S114D
B19: PRT-168 (protein)
chain: B17 chain with T28E
B20: PRT-174 (protein)
chain: B17 chain with T28A, D29N, K42V, S114H, V268K, S270A, A271S, K282E, E283D, D284E
B21: PRT-173 (protein)
chain: B17 chain with T28A, D29N, K42V, S114H, V268K, S270A, A271S, K282E, E283G, D284E
B22: PRT-170 (protein)
chain: B17 chain with T31I, Q32K, N44H
B23: PRT-172 (protein)
chain: B17 chain with T25K, T31I, Q32K, N44H
B24: PRT-171 (protein)
chain: B17 chain with T31I, Q32K, N44G

Residue numbers refer to the chain shown, from its start.

The target of this series is pooled human IgG (human IgG1,2,3 and 4).
For B1, the Enzyme Activity Endpoint Assay: Fab′2 was found to be 242 ng/µL, the Enzyme Activity Endpoint Assay: Fc stood at 118 ng/µL, the Enzyme Activity Endpoint Assay: IgG was determined as 102 ng/µL and the Enzyme Activity Endpoint Assay: scIgG was 0 ng/µL.

B2: the Enzyme Activity Endpoint Assay: Fab′2 came out at 607 ng/µL, the Enzyme Activity Endpoint Assay: Fc came out at 160 ng/µL, the Enzyme Activity Endpoint Assay: IgG worked out at 0 ng/µL and the Enzyme Activity Endpoint Assay: scIgG turned out to be 0 ng/µL.

In the case of B3, the Enzyme Activity Endpoint Assay: Fab′2 is 259 ng/µL, the Enzyme Activity Endpoint Assay: Fc was 130 ng/µL, the Enzyme Activity Endpoint Assay: IgG worked out at 0 ng/µL and the Enzyme Activity Endpoint Assay: scIgG turned out to be 0 ng/µL.

In turn, B4 had an Enzyme Activity Endpoint Assay: Fab′2 of 524 ng/µL, an Enzyme Activity Endpoint Assay: Fc of 185 ng/µL, an Enzyme Activity Endpoint Assay: IgG of 0 ng/µL and an Enzyme Activity Endpoint Assay: scIgG of 0 ng/µL.

For B5, the Enzyme Activity Endpoint Assay: Fab′2 worked out at 513 ng/µL, the Enzyme Activity Endpoint Assay: Fc came to 178 ng/µL, the Enzyme Activity Endpoint Assay: IgG was determined as 0 ng/µL and the Enzyme Activity Endpoint Assay: scIgG was 0 ng/µL.

B6 displayed an Enzyme Activity Endpoint Assay: Fab′2 of 544 ng/µL, an Enzyme Activity Endpoint Assay: Fc of 158 ng/µL, an Enzyme Activity Endpoint Assay: IgG of 0 ng/µL and an Enzyme Activity Endpoint Assay: scIgG of 0 ng/µL.

On to B7, for which the Enzyme Activity Endpoint Assay: Fab′2 was 482 ng/µL, the Enzyme Activity Endpoint Assay: Fc was 156 ng/µL, the Enzyme Activity Endpoint Assay: IgG was determined as 0 ng/µL and the Enzyme Activity Endpoint Assay: scIgG was 0 ng/µL.

On to B8, for which the Enzyme Activity Endpoint Assay: Fab′2 turned out to be 655 ng/µL, the Enzyme Activity Endpoint Assay: Fc is 204 ng/µL, the Enzyme Activity Endpoint Assay: IgG turned out to be 0 ng/µL and the Enzyme Activity Endpoint Assay: scIgG is 0 ng/µL.

As to B9, the Enzyme Activity Endpoint Assay: Fab′2 came to 489 ng/µL, the Enzyme Activity Endpoint Assay: Fc turned out to be 152 ng/µL, the Enzyme Activity Endpoint Assay: IgG came out at 0 ng/µL and the Enzyme Activity Endpoint Assay: scIgG was determined as 0 ng/µL.

For the protein B10, the Enzyme Activity Endpoint Assay: Fab′2 was 592 ng/µL, the Enzyme Activity Endpoint Assay: Fc was determined as 180 ng/µL, the Enzyme Activity Endpoint Assay: IgG came to 0 ng/µL and the Enzyme Activity Endpoint Assay: scIgG turned out to be 0 ng/µL.

As for B11, the Enzyme Activity Endpoint Assay: Fab′2 came out at 663 ng/µL, the Enzyme Activity Endpoint Assay: Fc is 192 ng/µL, the Enzyme Activity Endpoint Assay: IgG amounted to 0 ng/µL and the Enzyme Activity Endpoint Assay: scIgG stood at 13 ng/µL.

B12 registered an Enzyme Activity Endpoint Assay: Fab′2 of 739 ng/µL, an Enzyme Activity Endpoint Assay: Fc of 202 ng/µL, an Enzyme Activity Endpoint Assay: IgG of 0 ng/µL and an Enzyme Activity Endpoint Assay: scIgG of 0 ng/µL.

In the case of B13, the Enzyme Activity Endpoint Assay: Fab′2 was determined as 457 ng/µL, the Enzyme Activity Endpoint Assay: Fc is 181 ng/µL, the Enzyme Activity Endpoint Assay: IgG worked out at 28 ng/µL and the Enzyme Activity Endpoint Assay: scIgG worked out at 0 ng/µL.

For the protein B14, the Enzyme Activity Endpoint Assay: Fab′2 was found to be 666 ng/µL, the Enzyme Activity Endpoint Assay: Fc was determined as 203 ng/µL, the Enzyme Activity Endpoint Assay: IgG was found to be 0 ng/µL and the Enzyme Activity Endpoint Assay: scIgG was determined as 0 ng/µL.

Consider B15, for which the Enzyme Activity Endpoint Assay: Fab′2 was 553 ng/µL, the Enzyme Activity Endpoint Assay: Fc worked out at 200 ng/µL, the Enzyme Activity Endpoint Assay: IgG amounted to 0 ng/µL and the Enzyme Activity Endpoint Assay: scIgG was 117 ng/µL.

Turning to B16, the Enzyme Activity Endpoint Assay: Fab′2 is 575 ng/µL, the Enzyme Activity Endpoint Assay: Fc amounted to 136 ng/µL, the Enzyme Activity Endpoint Assay: IgG came out at 0 ng/µL and the Enzyme Activity Endpoint Assay: scIgG worked out at 0 ng/µL.

Take B17: the Enzyme Activity Endpoint Assay: Fab'2 was found to be 572 ng/µL, the Enzyme Activity Endpoint Assay: Fc came out at 161 ng/µL, the Enzyme Activity Endpoint Assay: IgG came to 0 ng/µL and the Enzyme Activity Endpoint Assay: scIgG turned out to be 0 ng/µL.

Consider B18, for which the Enzyme Activity Endpoint Assay: Fab'2 was determined as 658 ng/µL, the Enzyme Activity Endpoint Assay: Fc stood at 188 ng/µL, the Enzyme Activity Endpoint Assay: IgG was 0 ng/µL and the Enzyme Activity Endpoint Assay: scIgG stood at 0 ng/µL.

Protein B19 displayed an Enzyme Activity Endpoint Assay: Fab'2 of 628 ng/µL, an Enzyme Activity Endpoint Assay: Fc of 159 ng/µL, an Enzyme Activity Endpoint Assay: IgG of 0 ng/µL and an Enzyme Activity Endpoint Assay: scIgG of 0 ng/µL.

Turning to B20, the Enzyme Activity Endpoint Assay: Fab'2 amounted to 586 ng/µL, the Enzyme Activity Endpoint Assay: Fc is 160 ng/µL, the Enzyme Activity Endpoint Assay: IgG came out at 0 ng/µL and the Enzyme Activity Endpoint Assay: scIgG stood at 0 ng/µL.

Protein B21 registered an Enzyme Activity Endpoint Assay: Fab'2 of 912 ng/µL, an Enzyme Activity Endpoint Assay: Fc of 226 ng/µL, an Enzyme Activity Endpoint Assay: IgG of 0 ng/µL and an Enzyme Activity Endpoint Assay: scIgG of 30 ng/µL.

B22 showed an Enzyme Activity Endpoint Assay: Fab'2 of 755 ng/µL, an Enzyme Activity Endpoint Assay: Fc of 193 ng/µL, an Enzyme Activity Endpoint Assay: IgG of 0 ng/µL and an Enzyme Activity Endpoint Assay: scIgG of 0 ng/µL.

The protein B23 yielded an Enzyme Activity Endpoint Assay: Fab'2 of 821 ng/µL, an Enzyme Activity Endpoint Assay: Fc of 215 ng/µL, an Enzyme Activity Endpoint Assay: IgG of 0 ng/µL and an Enzyme Activity Endpoint Assay: scIgG of 0 ng/µL.

On to B24, for which the Enzyme Activity Endpoint Assay: Fab'2 turned out to be 765 ng/µL, the Enzyme Activity Endpoint Assay: Fc worked out at 187 ng/µL, the Enzyme Activity Endpoint Assay: IgG stood at 23 ng/µL and the Enzyme Activity Endpoint Assay: scIgG came out at 0 ng/µL.
